Reference: patent US20260297194 (published 2026)

Key:
human GPRC5A = human GPRC5A (human, UniProt Q8NFJ5); test: FACS, human GPRC5A-CHOK1 cells
human GPRC5D [1] = target: T1, human GPRC5D (human, UniProt Q9NZD1); test: FACS, human GPRC5D-CHOK1 cells
T1 chain: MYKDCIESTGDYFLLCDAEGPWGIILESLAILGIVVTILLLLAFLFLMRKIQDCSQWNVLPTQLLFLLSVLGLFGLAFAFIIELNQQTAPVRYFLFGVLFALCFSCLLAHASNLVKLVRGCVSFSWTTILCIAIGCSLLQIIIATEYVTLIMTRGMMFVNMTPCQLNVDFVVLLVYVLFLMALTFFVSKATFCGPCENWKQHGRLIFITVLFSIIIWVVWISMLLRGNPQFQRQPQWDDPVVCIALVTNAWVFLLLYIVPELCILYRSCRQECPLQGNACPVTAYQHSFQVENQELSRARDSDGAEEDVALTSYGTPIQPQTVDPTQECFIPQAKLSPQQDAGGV

human GPRC5D [2] = target: T1, human GPRC5D; test: FACS, RPMI8226 cells
human GPRC5D [3] = target: T1, human GPRC5D; test: FACS, NCI-H929 cells
human CD3 [4] = target: T2, human CD3 (human, UniProt P07766); test: SPR
T2 chain: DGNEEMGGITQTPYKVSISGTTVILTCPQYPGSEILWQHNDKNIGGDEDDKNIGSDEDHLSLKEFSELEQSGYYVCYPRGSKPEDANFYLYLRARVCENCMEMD

human CD3 [5] = target: T2, human CD3; test: FACS, Jurkat cells
cynomolgus CD3 = target: T3, cynomolgus CD3 (cynomolgus monkey, UniProt Q95LI5); test: SPR
T3 chain: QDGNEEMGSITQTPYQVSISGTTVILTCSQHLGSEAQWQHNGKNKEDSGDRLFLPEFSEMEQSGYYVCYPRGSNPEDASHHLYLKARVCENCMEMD

human GPRC5D [6] = target: T1, human GPRC5D; test: FACS, NCI-H929 cells
human GPRC5D [7] = target: T1, human GPRC5D; test: FACS, human GPRC5D-CHOK1 cells

Chain of human GPRC5A (Q8NFJ5 whole entry): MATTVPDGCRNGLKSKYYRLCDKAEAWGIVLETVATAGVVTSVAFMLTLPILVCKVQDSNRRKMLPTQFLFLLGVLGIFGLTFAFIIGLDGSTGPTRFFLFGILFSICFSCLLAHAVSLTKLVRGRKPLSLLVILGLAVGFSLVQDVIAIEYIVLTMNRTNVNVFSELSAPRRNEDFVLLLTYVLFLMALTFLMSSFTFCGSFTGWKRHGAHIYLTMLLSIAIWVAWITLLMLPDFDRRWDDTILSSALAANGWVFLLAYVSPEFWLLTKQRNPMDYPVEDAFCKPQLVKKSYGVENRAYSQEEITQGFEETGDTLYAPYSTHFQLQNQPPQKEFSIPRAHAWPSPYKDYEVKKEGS

B1: 18CH-16 chimeric (antibody, V domains shown)
VH: EVQLQQSGPELVKPGASVKMSCKASGYTFTSYIIHWVKQKPGQGLEWIGYINPYNDGTKYNEKFKGKATLTSDRSSSTAYMEVSSLTSEDSAVYYCARGGIRAFMNYWGQGTSVTVSS
VL: DIVMTQSHKFMSTSVGDRVSITCKASQDVGTAVAWYQQKPGQSPKLLIYWASTRHTGVPDRFTGSGSGTDFTLSISNVQSEDLADYFCQHYISWTFGGGTNLEIK
In the case of B1, the binding result (human GPRC5A) is reported as “no binding” and the EC50 (human GPRC5D [1]) is reported as 3.89 nM.

B2: Bispecific antibody 1 (GPRC5D arm) (antibody, V domains shown)
VH: QVQLVQSGAEVKKPGASVKVSCKASGYTFTSYIIHWVRQAPGQGLEWIGYINPYNDGTKYNEKFKGRVTMTSDTSTSTVYMELSSLRSEDTAVYYCARGGIRAFMNYWGQGTLVTVSS
VL: DIQMTQSPSSLSASVGDRVTITCKASQDVGTAVAWYQQKPGKAPKLLIYWASTRHTGVPSRFSGSGSGTDFTLTISSLQPEDFATYYCQHYISWTFGQGTKVEIK
B2 gave an EC50 (human GPRC5D [2]) of 7.48 nM and an EC50 (human GPRC5D [3]) of 1.07 nM.

B3: Bispecific antibody 1 (CD3 arm) (antibody, V domains shown)
VH: EVKLVESGGGLVQPGGSLKLSCAASGFTFNTYAMNWVRQAPGKGLEWVARIRSKYNNYATYYADSVKDRFTISRDDAKNTLYLQMNNLRTEDTAVYYCVRHGNFGNSYVSWFAYWGQGTLVTVSS
VL: QAVVTQEPSLTVSPGGTVTLTCRSSTGAVTTSNYANWVQQKPGQAPRGLIGGTNKRAPGTPARFSGSLLGGKAALTLSGAQPEDEAEYYCALWYSNLWVFGGGTKLTVL
modifications: Acro CDD-H52W1 for SPR; native CD3 on Jurkat cells for FACS
B3 was tested, and the Kd (human CD3 [4]) was 20 nM and the EC50 (human CD3 [5]) was 22.1 nM.

B4: Bispecific antibody 2 (CD3 arm) (antibody, V domains shown)
VH: EVKLVESGGGLVQPGGSLKLSCAASGFTFNTYAMNWVRQAPGKGLEWVARIRSKYNNYATYYADSVKDRFTISRDDAKNTLYLQMNNLRTEDTAVYYCVRHGNFGNSYVSWFAYWGQGTLVTVSS
VL: QAVVTQEPSLTVSPGGTVTLTCRSSTGAVTTSNYANWVQQKPGQAPRGLIGGTNKRAPGTPARFSGSLLGGKAALTLSGAQPEDEAEYYCALWYSNLWVFGGGTKLTVL
modifications: Acro CDD-H52W1 for SPR; native CD3 on Jurkat cells for FACS
B4 was tested, and the Kd (human CD3 [4]) was 18.1 nM and the EC50 (human CD3 [5]) was 12.9 nM.

B5: Bispecific antibody 2 (CD3 arm) (antibody, V domains shown)
VH: EVKLVESGGGLVQPGGSLKLSCAASGFTFNTYAMNWVRQAPGKGLEWVARIRSKYNNYATYYADSVKDRFTISRDDAKNTLYLQMNNLRTEDTAVYYCVRHGNFGNSYVSWFAYWGQGTLVTVSS
VL: QAVVTQEPSLTVSPGGTVTLTCRSSTGAVTTSNYANWVQQKPGQAPRGLIGGTNKRAPGTPARFSGSLLGGKAALTLSGAQPEDEAEYYCALWYSNLWVFGGGTKLTVL
modifications: Acro CDD-C52W4
Binder B5 has a Kd (cynomolgus CD3) of 18.9 nM.

B6: Bispecific antibody 2 (GPRC5D arm) (antibody, V domains shown)
VH: QVQLVQSGAEVKKPGASVKVSCKASGYTFTSYIIHWVRQAPGQGLEWIGYINPYNDGTKYNEKFKGRVTMTSDTSTSTVYMELSSLRSEDTAVYYCARGGIRAFMNYWGQGTLVTVSS
VL: DIQMTQSPSSLSASVGDRVTITCKASQDVGTAVAWYQQKPGKAPKLLIYWASTRHTGVPSRFSGSGSGTDFTLTISSLQPEDFATYYCQHYISWTFGQGTKVEIK
Binder B6 has an EC50 (human GPRC5D [2]) of 22.9 nM and an EC50 (human GPRC5D [3]) of 5.19 nM.

B7: 18CH16H2L1 (antibody, V domains shown)
VH: QVQLVQSGAEVKKPGASVKVSCKASGYTFTSYIIHWVRQAPGQGLEWIGYINPYNDGTKYNEKFKGRVTMTSDTSTSTVYMELSSLRSEDTAVYYCARGGIRAFMNYWGQGTLVTVSS
VL: DIQMTQSPSSLSASVGDRVTITCKASQDVGTAVAWYQQKPGKAPKLLIYWASTRHTGVPSRFSGSGSGTDFTLTISSLQPEDFATYYCQHYISWTFGQGTKVEIK
B7 showed an EC50 (human GPRC5D [6]) of 0.3 nM and an EC50 (human GPRC5D [7]) of 0.51 nM.

B8: Bispecific antibody 1 (CD3 arm) (antibody, V domains shown)
VH: EVKLVESGGGLVQPGGSLKLSCAASGFTFNTYAMNWVRQAPGKGLEWVARIRSKYNNYATYYADSVKDRFTISRDDAKNTLYLQMNNLRTEDTAVYYCVRHGNFGNSYVSWFAYWGQGTLVTVSS
VL: QAVVTQEPSLTVSPGGTVTLTCRSSTGAVTTSNYANWVQQKPGQAPRGLIGGTNKRAPGTPARFSGSLLGGKAALTLSGAQPEDEAEYYCALWYSNLWVFGGGTKLTVL
modifications: Acro CDD-C52W4
B8 was tested, and the Kd (cynomolgus CD3) was 16.8 nM.
